Bounds are passed on as bounds.

The data set concerns Saccharomyces cerevisiae. As to the kind of experiment: transcriptional activation domain activity (GFP:mCherry ratio, weighted mean of sorted bins, harmonized to initial dataset scale) (arbitrary fluorescence ratio units); higher = stronger transcriptional activation. The conditions noted are these: beta-estradiol 1 µM; induction time 4 h. The gist of the method:
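For this assay, yeast diploids with a GFP reporter carried barcoded protein tiles at URA3, each fused to an estradiol-inducible synthetic transcription factor. Induction was a 1:5 dilution into SC with 1 uM beta-estradiol for 4 hours at 30 °C, followed by sorting into 8 bins by GFP:mCherry ratio and barcode sequencing. Tiles under 50 reads were dropped, and activation activity was calculated as the read-weighted mean of bin median fluorescence, averaged across barcodes and linearly mapped onto the initial dataset scale.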

Regarding “GRQSKDGKEGKEGKEGSGERRREEKKEAGRERGGEEGGKEGRGRQRAGASGGE”, the “transcriptional activation domain activity” value was 25500.

“GRRGSKAVPGEVSEAEANGDAPQTEATPAPESDDAAKPKKKKKSKAARKAKKA”: the “transcriptional activation domain activity” value was determined as 36100.

Regarding “GRRHCNYVQGWLWLSLFSYVCVTYVLSIYISMSFFFWNIAVFLFYFIFVGLLG”, the “transcriptional activation domain activity” value is 40500.

For “GRRRDNGGRRQGGGRRDGGGGGGGGGGRGRGERGGGGGERGERGGGARPKKTQ”, the “transcriptional activation domain activity” value is 34900.

As to “GRRRRKGEESRGRKNAEERKGGRKEGPGAGRVEAEGRAEATRTEKGEEGGSGG”, the “transcriptional activation domain activity” value worked out at 34800.

On to “GRRRVWTSLLDRGAGGEGGAGYVCGVTIDEGSNISGDHIQSTCILVDEYCELC”, for which the “transcriptional activation domain activity” value was 74500.

Turning to “GRSESQSANNNGNNARGGKTGGGEAAAGGKTSASRGPRGGRGAKNKGSGGSKG”, the “transcriptional activation domain activity” value was found to be 28700.

“GRTLSRYEPTNVCVVLILIWLGIYHYFLQVLQVRTHATARKIVLLYGWYTLRI”: the “transcriptional activation domain activity” value amounted to 53400.

Regarding “GRTNVALPIYLFVFGELIDAYENRHIHHMDRIKMVLRMWFFKSIWKSFLQGAG”, the “transcriptional activation domain activity” value was 56300.

Turning to “GRWSYLRTSEMILTFFYKNIMWTLVLFWYQLMCGFTGTMMFDYSYITLYNLVF”, the “transcriptional activation domain activity” value is 46300.

For the sequence “GRWSYLRTSEMILTFFYKNIMWTLVLFWYQLMCSFTGTMMFDYSYITLYNLVF”, the “transcriptional activation domain activity” value turned out to be 63400.

Take “GSAAKAGAGTGAGKAAAGGKTSAAATARGGGGAGAGGGKGAGGASAKAGTGGG”: the “transcriptional activation domain activity” value worked out at 31600.

Turning to “GSAFGQSAFGKPATGAFGAPTSAFGSNTTTNNNTTTTSSAFGSSTATSAFGSA”, the “transcriptional activation domain activity” value was found to be 14300.

Regarding “GSDAPASGRAKSKTPKATGAKNGGKGGKGDATEEAEAKREEGGEEKRAAKKSK”, the “transcriptional activation domain activity” value is 20000.

With “GSEDESEGSEDESSEDEEDEEKALDKKMEIQDQTNTNLVNLRKTIYLTIMSSI”, the “transcriptional activation domain activity” value worked out at 43400.

Turning to “GSEDRRKSSRSRDRRERRSRSRDKSHRDRERERDKDRERRHRDHEPRHSHRDR”, the “transcriptional activation domain activity” value worked out at 43300.

Turning to “GSEEDAARAASTSRKRRRASAPRTGDGSDDERESSRAEASAGAGAGAEAKPRR”, the “transcriptional activation domain activity” value was found to be 18600.

Regarding “GSEIVDGDEESSPDGVRIKAESGSSAPVATSSALPPQGGYIGRLNVRKSGKIE”, the “transcriptional activation domain activity” value came to 29800.

Turning to “GSELEVKKPSKKRAPKKAAKKEEYEGSEMDEKPAPKRRAPARSTKKAAKKEEA”, the “transcriptional activation domain activity” value worked out at 15800.

As to “GSERRERRSERRRSRDRSGERRRSKREEGSSRRPQSPEDEDRQQRRHRRHRHR”, the “transcriptional activation domain activity” value came out at 16500.

Turning to “GSETTQEQRNIEGTDHGSGGGGGGSGEGGGGNEGGGGGGGGGSGGGGKGGGGE”, the “transcriptional activation domain activity” value was 30000.

As to “GSFVGFLFCFVDFGFWILEFSFFFSWMPAGVLSFWMVASQWGKADDIFFSLFF”, the “transcriptional activation domain activity” value worked out at 50600.

On to “GSHQGKEAKKEEGKKEEGKDKKEEEEGKKGGKKGGKKGGKGGKGKKTGETEAS”, for which the “transcriptional activation domain activity” value came out at 38000.

With “GSIDITRLGLSFTIIGDLWRQVWWAMLGRDEFASLRKNVSYSRQSLQNLLVTM”, the “transcriptional activation domain activity” value was found to be 61800.

Take “GSKGAMRARAEERGEGGEGGEREEGREGRGERRGGGRGGEGRERERGGREGRG”: the “transcriptional activation domain activity” value was 25000.

Take “GSKIILVVEQCMCVVIWGCKVCFLLIFWKLAWGLRVRLLIKLVASYVVATFLV”: the “transcriptional activation domain activity” value was found to be 65900.

With “GSKMLTEFKKKLRLDYFMLLDLRLWKDMRMCLRKLFISTLIANLSYKRILGLR”, the “transcriptional activation domain activity” value was 61700.

Consider “GSKTRSTTSRDRSVRNDDKKSTTSGRRSVVSGSKEERRRRSSKKSVPAASETA”, for which the “transcriptional activation domain activity” value stood at 34600.

In the case of “GSMGKVKLGVSSISGEKVAIKIIPRFTSTAAAHRPPPPTPSNEPSGSSRRPSS”, the “transcriptional activation domain activity” value turned out to be 7050.

Regarding “GSNIQWLVTKWREMGCRKGPIELTKFLTGLLCVNPFSLTPEKGARLLIKLLSI”, the “transcriptional activation domain activity” value is 62200.

In the case of “GSRGGRGGRGGSGGRGGRGGSSGGGGRESSGGRSERGGRRGGSGASGTKRLGK”, the “transcriptional activation domain activity” value is 15100.

Regarding “GSRRPRKDKSHKKKDRSSGDGTEKERKHRDRGDKGDRERAKSRERGEKGKRDR”, the “transcriptional activation domain activity” value amounted to 20500.

“GSSAEGEGDKEKTAVKRKRDSQVTGQQQQQQQQRADSSNRATSRKRRKTNKEG”: the “transcriptional activation domain activity” value turned out to be 60100.

As to “GSSAFGASGSSGGAFGQPAAQQQQSAFGGGGGLFGKPQGSSFGSTALATTAGQ”, the “transcriptional activation domain activity” value amounted to 55800.

“GSSDGGSHNAPGAPRPMALRALITTKEAGVIIGKNGKNVAEMREQSGAKITVS”: the “transcriptional activation domain activity” value was determined as 48900.

“GSSGRRVRILGVCGLGRNYVMMRVIELGGILEGEVTIRRMAVSSHPSSVWIAT”: the “transcriptional activation domain activity” value turned out to be 67500.

Turning to “GSSGSGAGSKGGPAPRGSSAKRSSGSGSGGGGRKGGGSAGKGSGGGGGRGRSG”, the “transcriptional activation domain activity” value worked out at 28600.

For “GSSQNTDQPHKSRKKRQREQDEDDTSTNKRSHRKSKKHKSSRKHKSSRKTAKT”, the “transcriptional activation domain activity” value turned out to be 25100.

With “GSSTTPARCTSARTMRSASYGASKYKGREGKVTQVYRKKWVIHVQRDKVGQVR”, the “transcriptional activation domain activity” value was found to be 83200.

Take “GSTHPRQVFDQLDDCSSILFSPLTTNTNNEFEGESDDFVHSPYLNSEADFSQI”: the “transcriptional activation domain activity” value stood at 75200.

For the sequence “GSTNRSGDGSSDDERRKSRRRGRRRKASVSSSSSGGSKSSSTTSRSRSRSRSR”, the “transcriptional activation domain activity” value is 7680.

In the case of “GSTPGKTASTGRGTAGGKGVAAGSKAPASTRGGGGGTAGGGGKAGGANTKTAV”, the “transcriptional activation domain activity” value was determined as 56000.

Consider “GSTQAVDLIAYGGYKFVGVITTLISGFEFLHLGRSIYTMVFLYSFLSNAFFLL”, for which the “transcriptional activation domain activity” value is 63600.

For the sequence “GSTSSSNEEKKEQSITSESKAAGGLFGSIKSNEPPTSAFGSLSTTEAKPAASP”, the “transcriptional activation domain activity” value was 32800.

Take “GSVGDELVCVVKRARPIAPSSASNAIKVRRGDVRRAVIVRTKKAVRRPDGRLI”: the “transcriptional activation domain activity” value came to 29900.

For the sequence “GSVKKKLASSSRTGQACDRCKVRKIRCDPRPEGCSPCAQNRTPCKTTDRITGR”, the “transcriptional activation domain activity” value was 41900.

On to “GSWMILRILLHQLLDSVQYIPEYKDIAALRYRGPTYYFQELQKAFYHVLDAVP”, for which the “transcriptional activation domain activity” value was determined as 65200.

For “GSYCISLVNVLVAFGVVLLHASTSGLWHWNPPFRAPNSVVFIYLLSNIFLITV”, the “transcriptional activation domain activity” value came to 55000.

On to “GSYTSAARGGKAVQEAIRAMIERKGLELRQKQRKLRQDVVIVMHHATALPGTS”, for which the “transcriptional activation domain activity” value amounted to 56300.

“GTAHHHDPNDPKRPRACEACRGLKVRCEPDPTNPNPDGPCKRCAKAGRACLVT”: the “transcriptional activation domain activity” value was less than 6570.

For “GTAIEGLVIRFYIRKYEDSNNNNLEQNKTGQVRVSSPRAYLRIVGYTWVLAWF”, the “transcriptional activation domain activity” value came out at 38700.

As for “GTCGKLGLLCRSMALYSPEVTVVTVSGGGGSSRWVEYLELALRTTGRVAVLLT”, the “transcriptional activation domain activity” value was 64500.

On to “GTDDAEAREKTGAADPSADPASRKRRADDGEGDARKRIRTEGGSASAAAASSS”, for which the “transcriptional activation domain activity” value stood at 14100.

With “GTEYEIGRPSDEEVTITRMLDKVLRRSDAVDKESLCIVAGQRVWHLRLTLHCL”, the “transcriptional activation domain activity” value is 68500.

Consider “GTGDEQTGSGEKGKKKKASRACYHCQKAHLTCDDARPCGRCVKRNLASTCTDG”, for which the “transcriptional activation domain activity” value was 40600.

In the case of “GTGEEEEETTKHIVRKRGGGRGGRGKQESEQEWESEEEEEGTGEEEETTKQRT”, the “transcriptional activation domain activity” value amounted to 39000.

With “GTGGLSELRDAFDDSKASYGYARVTYSNDKESQREKFILVVWIGSGCKVMRKG”, the “transcriptional activation domain activity” value was 36600.

Consider “GTGRSSDDVSSGAGSEEVSQTLDEKMAEEQKGRQRLNNIIQQFYIKGALVIVG”, for which the “transcriptional activation domain activity” value amounted to 67400.

Regarding “GTKKEEKGEKDKTETKKSKKSSKHNKVTSKKSSSKKSTRKAAISDADSSDDSS”, the “transcriptional activation domain activity” value was 35100.

Consider “GTLNAQVTICEYSSTGQPLNGQGGCYNLHPVFNWIHHCIMSIFLVFMIAWLPL”, for which the “transcriptional activation domain activity” value was found to be 78500.

Take “GTRAPAVHRDQRGPVDSQERAGEDVVRRERSVGQGRRAVRGARLVYAGAAALE”: the “transcriptional activation domain activity” value amounted to 51500.

Consider “GTSGTSVASRPSITPRAFGSSRSSRPSARSGSPSSRTAPSTPAPASSTRRTRP”, for which the “transcriptional activation domain activity” value came to 31100.

“GVCLKVGITKPKKPNSAERKTARVRLSTGRVVTAYIPGEGHNVQQHSVVLVRG”: the “transcriptional activation domain activity” value came to 39500.

Take “GVCLKVGITRPKKPNSGERKTARVRLSSGRMITAYVPGEGHNIQQHSVVLVRG”: the “transcriptional activation domain activity” value was 51900.

Take “GVDDADHEEEEEEEEEEEQEGARYGALMGGLGVAQGAMRILAPAVAGGVYAVS”: the “transcriptional activation domain activity” value stood at 67300.

Take “GVDERRAIVESFVKRVTHKYLRHCDPSEPVLLLSSLVIKLIFARFWLLVYRPQ”: the “transcriptional activation domain activity” value worked out at 44900.

On to “GVDGDGAADADADEDDEEGEEDEDDEGGGAGRKRKKARMEAAPKAKPKPAPAK”, for which the “transcriptional activation domain activity” value came out at 27700.

As to “GVDPATKEKKVPSDVLEEPPTLKESLQVLYKYCILCFNLNRKRVVLQFIASFL”, the “transcriptional activation domain activity” value came to 73300.

Turning to “GVEGQGKRTRAGKKRRIVLRERQRKRVKEEEERKKKGEEKEGREREKRVRRNR”, the “transcriptional activation domain activity” value amounted to 46700.

Take “GVEKTAEKPSEEPAEEAPEKKAEPTTEEPEPEAAKPKARGGRPKKVIAAPKED”: the “transcriptional activation domain activity” value is 38300.

For “GVENQVDFHHNEKHKLMLLKALGYRVLADINKVSVVMPAALVGTVVLTLRGRG”, the “transcriptional activation domain activity” value was 44500.

Take “GVERNHLSVFRPVSFSFSSWFMLLLFFCFRGVELVILFPDCSWFLCIPLFYSF”: the “transcriptional activation domain activity” value came to 67700.

Take “GVEWWNVTSPEDSTYDPASLPLDVWDPLLPHDTGFSEIDITQCFFDPFFMPFL”: the “transcriptional activation domain activity” value was 160000.

“GVFCLALWVPATGFELVSFFALLVGAIFGVFWMVAGLKNLQSSLSISWLVIAL”: the “transcriptional activation domain activity” value turned out to be 65200.

The record behind these values is the supplement of paper PMC12636428.
